Assay: soluble on expression in E. coli; label from the status in PepcDB or PDB records

Row | Sequence | soluble on expression in E. coli
1 | MLRHSRHNAVFILDTAGIIMGISEGAQRSYGYTHKDVHGKYFDMLFTEESRKQQKPELELAKVLQYGTAADYNEFVHKDGRHIWTEGESLLITDVWGDSFIIKNVHSLDKEKEEQRNLQQQNEKLLRINNDLDTFVYTASHDLKNPVSNIESLVSIMQYELKHGADAEAVEPVMSRITEALNRFKTTLNELTEISRIDAPVDTDEMYVSFDSILQEVMYDVQDLVDSTEASIQSDFSAATMVRFSKKNVRSILFNLLSNALKYRSPERKPEIYIETKPAGEYILLSVRDNGIGIEPAQHKKVFQFFKRLHTHVQGTGVGMGIVKKIMDNTGGKITLESIPGKGSAFTVHFKQ | not soluble
2 | MQDRNFDDIAEKFSRNIYGTTKGQLRQAILWQDLDRVLAEMGPQKLRVLDAGGGEGQTAIKMAERGHQVILCDLSAQMIDRAKQAAEAKGVSDNMQFIHCAAQDVASHLETPVDLILFHAVLEWVADPRSVLQTLWSVLRPGGVLSLMFYNAHGLLMHNMVAGNFDYVQAGMPKKKKRTLSPDYPRDPAQVYLWLEEAGWQIMGKTGVRVFHDYLREKYQQRDCYEALLELETRYCRQEPYITLGRYIHVTARKPQSKDKV | not soluble
3 | MSLIIMKAITVLSGGLDSTVVTLIAKDLGYEVTAITFNYGQRAAKREINSAKKICEILGIEHIVVDLPFVKQFGKSSLITEKEIPTLKMEELDSEKAYETMKAVWVPARNVIMFGIASGFAEALDAEKIFIGINKEEGVTFPDNTIEFVEAFNKVLEYGTLNKVKIEAPLYDKTKEEIVKLGAELEKKLGVEVLKYSYSCYHDNGEDFLHCGKCESCMRRKRAFLMAGVEDKTKYIEEGHHHHHH | soluble
4 | MIAITGASGQLGRLVIAQLLEKVPASDIVALVRDVNKVADLSAKGVQVKAADYNQPEALAFALQGVDKVLLISSSEVGQRAAQHRNVIEAAVKAGVKLVAYTSLLHADKSPLALAEEHRQTEALLKDSGLPHVLLRNGWYTENYAASIPAALEHGVFIGSAGEGKITSATREDFAAAAVAVLTQEGQAGKVYELAGDEPYTLVELAAEISKQSGKSIGYQNLSGAEFTAALVSAGLPDVFAQIIADSDVGASKGGLFDGGKHLSQLIGRPTTPLSAVVKATLK | soluble
5 | MSLRMIGKVLELLNCKETEREINRRKFSICDDVNFILNLPIGYLKDVISPLENYLSKHMTNNFSRLTRVVPNDYEDTQLHFSKFFLNLYSSAISEIPRFNILTSLVILDEYRMMPDKALIAAADELARNGINAIFSTSTPSVFFEEEIVSRFRNRRVVSISIVNEYGQAVEGRDCVKKGEGYYQCRGSYEVIELIEDFDIRDLDYEIIKGEEVFKVKEPFTLFVNSWEKALRLYRKLREERNTEVCLLNSSDECKVTITPKIMPTRFNVVSEISSLPTIVARSGIINDKDKIYVWIDRDNYDTVTESTLNLLSNIKVCLKHPFGCNGKMGYANKTVLKPNIDERLIKRLSEISHLMDRREFEKVTEVFSDFVTVDLFTDKEKITTVPPEFVYENKKKILYYGNSCVYTYFTDGEKCSKIVYNWLEGGGVSWLKRNLARAYKNYVEEEGKKKVFLGLKARDVEEWIEGHHHHHH | not soluble
6 | APWFLEYSKSECHFYNGTQRVRLLVRYFYNLEENLRFDSDVGEFRAVTELGRPDAENWNSQPEFLEQKRAEVDTVCRHNYEIFDNFLVPRRVEPTVTVYPTKTQPLEHHNLLVCSVSDFYPGNIEVRWFRNGKEEKTGIVSTGLVRNGDWTFQTLVMLETVPQSGEVYTCQVEHPSLTDPVTVEW | soluble
7 | MSLKTTPLPILDLLEAYRPLFVEALGNRSRKERSKKERYIAKITAPCIDACPAHVDIPAYIEGVRDHLLGDSLAATRKSMPLAQVCGRVCPHPCESACRRGDLDEPISIMELKRLGADYEKERHGGFIHPYPPKPRRKDKRVAIIGAGPAGLSSAYYLALEGIMSDVFEALPVLGGEVSVGVPEYRMPIDRYYHDIEAIKSLGVSFWTNHFVSAKELDEMRQKYDAIILATGARISKKLGVKGEEESLGGYAPAIPWLDQINLATKFNLAALPDLRGKSVVCVGGGFTSMDVVRCAVRLGAKRIVMLYRRDEATLIQNTSKEEYHEALEEGVEFLFQCAVQEIKSCGGEIKALLVEEYEVVYEEGARKPSLRRIEREPLFLECDLLIPAVSQEVDRSFIPKEWNLESTSWGSFKTNGKDFSTTLRGVFAAGDCEKGPLTIVNAVGQGKRAASVVSRFLEDGEEGHHHHHH | soluble
8 | MPQLQKEWFDTWFDTPYYHILYSNRDESEAEVFLTNLMNHMAVPKGASILDLPCGKGRHTLFLAEKGYTLTGADLSVASIALAQSHAPAGVTFLVHDLRKPAWNESFDYVLNLFTSFGYFETEAEDRAAFTTLSKALKSGGSLVIDFMNVTRAVNLLKEEETKVMEGIEFQLKRYVKDGYIHKEIRFEADNTPFFFTERVKALTLDDFKEFFTFAGLTLVDTFGSYQLDAYDAAESDRLIMIAKKLEHHHHHH | soluble
9 | MSLKNQWNNILSIGEKVLNGEKITADEALTLSKSNGSDIFLLCSFANKLREKFNGNHVDLCSVINAKSGNCSEDCAFCAQSAHHKANVSCYPLLNEDKILEMAKQREAYGARHCDIATSGLGYTGDEKDFQTILKAFKKMKENTNLKLCACLGTLTEKAMNSLAAVGVERYNHNLETAKSFYKNIVSTHGYDERIKTINYAKNAKMEVCSGMIVGLGETMEQRIEHALLLRDLNVDAVPVNILNPVKGTKLENAKPLSPMEIIKTFAIIRFILPDKIIRYAGGREKNLRSLQPLGFLSGLNGMLIGNYLTTNGQSVNDDFNMLKDLELEYEGHHHHHH | soluble
10 | MAHHHHHHMHRFRVCALGAAFCVARRWRSGGGPGDRRVRTDWYRCYPSLMEEKDRDMYHCYYPYLFDHGDKMSLYPKIPDNPREWQVEQLQTTYDAIREDKYDAFVRLRAKFPELYQDTYAWDNPPPFGEFNMFYSVRFGMIGVKAFTCKDYDDLGNQFDCTAFWFPDNQIVKHSTRNGDVGTDKVYVGAMNVPVEFHKPHVAAFYKAAGVPVKHVSAGFPVTPDAYAPVGTKLDVRHFKPGQEVTITFQNTDYGYQGVMFRHGFDGGYVWLGDSKWQRRPGCMGAEGQKRIYPGHRMAGQTGASAETYDGVPVWRIDYKNSLIYLPTLIDADVGTYVKFRDTINTKGYTLWNEHRGTPPFPTFIPSEEEDLSKLATDEGQLTSPPLYMYFRDEFAAAQLVTQADVEDAKSAKPATAAPKKKVYDLKKYTEARKKYRKNLQKARKYKLMGVRTRAHEKQQEARRAKILKYKRVKT | not soluble
11 | AIASEVSCKKRDDYLEWPEYFMAVAFLSAQRSKDPNSQVGACIVNSENKIVGIGYNGMPNGCSDDVLPWRRTAENKLDTKYPYVCHAELNAIMNKNLTDVKGCSMYVALFPCNECAKLIIQAGIKEVIFMSDKYHDSDEATAARLLFNMAGVTFRKFIPKCSKIVIDFDSINSRPSQKLQ | soluble
12 | MGSDKIHHHHHHMAQALYANVAVVNSKEHKDLKIKPINHFRYAAKIQSCPISDIEFFPCSLSHPIMFAKAEDGKIVPLALMGLERETNQFVSSEGVWKEGEYMPAFLRRYPFIMVRDPENTRMVVGLDMDAEGVNRDEGRELFDEKSEASEFAKSAMKFLTDFQEAFDRTQNFLAKMSELELFDDAVFNWEFKGVTSSFGGFMRIDEKKLDELDDETLLALTRSGHYKLIVAHLVSLRRFQRLVDWKMRPAS | not soluble
13 | GMSTDTCIKRPTRSELVDRFQKKIRAGEPIIGGGAGTGLSAKSEEAGDIDLIVIYNSGRYRMAGRGSLAGLLAYGNANQIVVDMAREVLPVVRHTPVLAGVNGTDPFMVMSTFLRELKEIGFAGVQNFPTVGLIDGLFRQNLEETGMSYAQEVEMIAEAHKLDLLTTPYVFSPEDAVAMAKAGADILVCHMGLTTGGAIGARSGKSMDDCVSLINECIEAARTIRDDIIILSHGGPIANPEDARFILDSCQGCHGFYGASSMERLPAEEAIRSQTLAFKAIRRQPA | soluble
14 | MFRMLNSSFEDDPFFSESILAHRENMRQMIRSFSEPFGRDLLSISDGRGRAHNRRGHNDGEDSLTHTDVSSFQTMDQMVSNMRNYMQKLERNFGQLSVDPNGHSFCSSSVMTYSKIGDEPPKVFQASTQTRRAPGGIKETRKAMRDSDSGLEKMAIGHHIHDRAHVIKKSKNKKTGDEEVNQEFINMNESDAHAFDEEWQSEVLKYKPGRHNLGNTRMRSVGHENPGSRELKRREKPQQSPAIEHGRRSNVLGDKLHIKGSSVKSNKKLEHHHHHH | soluble
15 | GSYTLSEKDLKELDSIRDSFQCMNEPLDNDQQASTLAKKEHNPTDILNVMDITMRRLVKMAKRLGAFNEISEAGKFSLLKGGMIEMLTIRGVTVFNADKGVWQTPVDGHSQISFNMFDKLRPDIKDTQKKGFLHFFNLLHSDVRKNDLAIDIIVLMVLFDSKREGLVSQQDKETVEKLHRNYESLLHRYLYSIHKEEAEQRFASIPKALVALRKVAENAVTLFLGAGNTTEAASLPKEFFATNY | soluble
16 | MIHSLFFHNNTKGTPSMKHPIDSISAEIEDEQAYVDKLFGKLDEEVVAANQRLNDVMLHVDPANPDAEALVRRETEYHALNEKIDRLNIAQLGLVFGRIDVTAQRTDLIDNWVAGTDNVDRRYIGRMGLDDRQNDYRTLLLDWRAPLARPFYLATTAHPEGVLHRRHIRTQGRSVVGVDDEVLSGVSAESAHSERADVVSETALYRAMCSARTGHMHSIVETIQREQDDIIRDPTRGVMVVEGGPGTGKTAVALHRVAYLLYTWRDQLAKTGVLIVGPNRSFLDYISRVLPELGETGVVLSTVGDLYPGISGTAVEDSLAREIKGSEEMVTVLRRLVQEYQQIPSEPFTIKIDGLELTVTPDIVKKARTRARRSRRPHNEARPLFTEHLTELLSHQMADLIGADPMGGKNLLSAADIAQLHDELLEESVVAEIVDEYWPQLTPQDTLTSLLESQNMISTVAYDYDEETQEALWRQQGSPWAASDAALLDELAVIIGVPDPEKERAEQEKAWREQIKDAQDALEILTGSANTDLDDESDAEILSAHDVIDAETLARRQEVRDIRSTAQRAREDLAWAYGHVIVDEAQELTPMEWRMVMRRCPSRWMTLVGDTAQTSSPAGVDSWAEALEPFVSGRYVTHHLTINYRTPAEIMEWANKVLHVFAPDAVGSTALRQSGTPVRFENSDAHAIEIAQKLRQDDPSRLTAIIGPDSMANNEIFGVSDIKGLEYDHVVVTNPIDIVNGSPQGWQDLYVALTRATQSLCIIGDLPELS | not soluble
17 | MKILVAVKQTAALEEDFEIREDGMDVDEDFMMYDLNEWDDFSLEEAMKIKESSDTDVEVVVVSVGPDRVDESLRKCLAKGADRAVRVWDDAAEGSDAIVVGRILTEVIKKEAPDMVFAGVQSSDQAYASTGISVASYLNWPHAAVVADLQYKPGDNKAVIRRELEGGMLQEVEINCPAVLTIQLGINKPRYASLRGIKQAATKPIEEVSLADIGLSANDVGAAQSMSRVRRMYIPEKGRATMIEGTISEQAAKIIQIINEFKGA | soluble
18 | MHPTAAALIRTLGLAPHPEGGHYRRVYASTRQVLDDSGAPPRPALTAIRFLLCAGEASRWHRVDAEECWHWQQGAPLELLIFDEASGQLRREVLDAAERGDAMHVVPAGCWQAARSLGDFTLVGCTVSPGFVWEGFALLEDGSPLAAQLAALVAEGAAPEPPTLPLEHHHHHH | not soluble
19 | MGSDKIHHHHHHMRKLKREAYKLNNIKMLQQDVKYSEEVIEAEFSVEGYSLIDYKRSYTLSRALVNGKWIVYDGNRLESSQKIKEFEICEDFYHESVKAWPNKEKYSRLFTNIKLNEDDQLKVISKKISKSILIHDVKECREEKVVNYVEYNDLNFSYAGNPKDIPSIVEYLRASQSQLTSPSRQVLTESGRLTFILDSEIVASIFHYVLRNFLNGNSPKLKLNEKISSEITIYDNPLNSFSSSFSVFDDEGVKTKKKEIIGDGIITNYLGTLTSKYGEAGNARGILPKPDYFSLEVKQGDWSLNELIDESRGAYIAMGVKKSELIRNSIRITPRSVVKIGQGQIFFREIAIPLQELVTIDAVTRENRGVFIDEEHGGVTPYVRMKVRAILY | not soluble
